Test results: patent US20100233154A1, “TARGETED BINDING AGENTS DIRECTED TO HEPARANASE AND USES THEREOF 463” (MedImmune Limited, priority 2008, published 2010)

Columns and labels:
human heparanase = molecular target: T1, human heparanase (Homo sapiens, UniProt Q9Y251); experiment: Cross species capture ELISA, human heparanase; type: binding
T1 sequence (Q9Y251 36-543): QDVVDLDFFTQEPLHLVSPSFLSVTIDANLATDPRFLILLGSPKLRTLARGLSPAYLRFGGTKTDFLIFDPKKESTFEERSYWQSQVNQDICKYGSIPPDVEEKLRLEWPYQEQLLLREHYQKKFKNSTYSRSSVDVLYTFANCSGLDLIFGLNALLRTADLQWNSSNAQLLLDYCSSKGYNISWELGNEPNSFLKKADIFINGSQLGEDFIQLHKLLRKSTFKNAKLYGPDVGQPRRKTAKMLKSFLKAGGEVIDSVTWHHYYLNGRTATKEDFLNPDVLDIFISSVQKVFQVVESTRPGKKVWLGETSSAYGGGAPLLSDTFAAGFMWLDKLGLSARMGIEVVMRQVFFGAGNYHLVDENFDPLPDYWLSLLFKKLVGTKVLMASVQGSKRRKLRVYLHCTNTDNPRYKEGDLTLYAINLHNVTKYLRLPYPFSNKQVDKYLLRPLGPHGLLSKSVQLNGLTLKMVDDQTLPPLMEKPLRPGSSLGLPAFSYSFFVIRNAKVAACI
Procedure: (§1) Initially, cross species binding to human, murine and cynomolgus heparanase was determined in an ELISA assay in which heparanase was captured onto plates using a rabbit anti-heparanase antibody (Raybiotech, Cat. IP-14-155). Exhaustive supernatants were added to the plates at a final dilution of 1:5 and bound antibody detected with a rabbit anti-human IgG Fc.

cynomolgus heparanase = experiment: Cross species capture ELISA, cynomolgus heparanase; type: binding; details: min 0.06, max 1.5 OD units
Procedure: as §1

MCF7-Hpa1#19 cells = experiment: Accumulation of precursor heparanase in conditioned medium and cell lysates (Western blot); type: cell-based, human; details: 25 μg per ml, 24 hrs
Procedure: MCF7-Hpa1#19 cells were cultured until confluent and then grown overnight (˜12 hrs) at 37° C. in serum free medium. Following overnight incubation, culture medium was replaced with serum free medium containing 25 μg per ml anti-heparanase monoclonal antibody 10E9.1 or a control IgG2 antibody (Sigma Cat. No. 1504-1MG) and incubated for a further 24 hrs at 37° C. Cell cultures were then treated for 2 hrs with PMA 0.1-10 μM, to stimulate heparanase expression (Sasaki N et al, J Immunol. 172: 3830, 2004). Conditioned medium from the cultures was harvested and concentrated 10-fold and protein lysates in RIPA buffer were prepared from the cells. Proteins from conditioned medium or cell lysates were separated on […] gels as described previously and heparanase was detected using an anti-heparanase polyclonal antibody (Biochain Cat. No. Z5010104).

[1] = tested on: HT1080 human fibrosarcoma cells; experiment: FACS binding to cell surface heparanase, HT1080; type: cell-based; details: 5 or 10 μg per ml, 2 hrs at 37° C.
Procedure: Although heparanase is found as a secreted protein, a proportion of heparanase is found in conjunction with cell surface heparan sulfate. The ability of anti-human heparanase antibodies to bind to cell surface heparanase was tested in a FACS assay. HT1080 human fibrosarcoma cells, HCT116 human colorectal tumour cells and B16F10 AP3 murine melanoma cells were each seeded into 6-well plates and cultured for 48 hrs prior to the addition of anti-heparanase antibody 10E9.1 or control IgG2 antibody (Sigma Cat. No. 1504-1MG). Antibodies were added to the cells to a final concentration of 5 or 10 μg per ml and incubated with the cells for 2 hrs at 37° C. The cells were then washed with phosphate buffered saline (PBS) and harvested by incubation with trypsin. The cells were pelleted by centrifugation and resuspended in 0.5 ml PBS, 0.1% BSA containing 1/200 dilution of AlexaFluor 488 anti-human IgG. The cells were incubated for 1 hr at room temperature, washed with PBS/BSA, resuspended in PBS and analysed by FACS. […] The differences likely reflect a lower affinity for murine heparanase in addition to any differences in absolute heparanase expression.

[2] = molecular target: T2, cell surface heparanase of parental MCF7 or MCF7-Hpa1#19 cells (Homo sapiens, UniProt Q9Y251); experiment: Cell surface heparanase activity assay; type: cell-based; details: 5 or 25 μg per ml
T2 construct: an expression construct comprising a full-length human heparanase cDNA under the control of a CMV promoter; expressed in transfected cells; host or cells: MCF7-Hpa1#19 (pCR3.1 vector, CMV promoter); parental MCF7 cells run alongside carry only low endogenous heparanase
T2 sequence (Q9Y251 158-543): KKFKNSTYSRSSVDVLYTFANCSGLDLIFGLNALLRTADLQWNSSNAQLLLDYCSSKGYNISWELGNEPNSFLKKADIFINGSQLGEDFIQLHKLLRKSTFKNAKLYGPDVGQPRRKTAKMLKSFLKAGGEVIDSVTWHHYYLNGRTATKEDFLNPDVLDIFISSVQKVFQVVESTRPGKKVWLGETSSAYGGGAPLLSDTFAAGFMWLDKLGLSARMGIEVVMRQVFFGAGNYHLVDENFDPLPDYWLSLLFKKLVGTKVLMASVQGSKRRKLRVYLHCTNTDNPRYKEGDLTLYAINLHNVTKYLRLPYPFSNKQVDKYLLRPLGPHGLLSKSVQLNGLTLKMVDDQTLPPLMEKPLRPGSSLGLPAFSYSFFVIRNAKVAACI
T2 sequence (Q9Y251 36-109): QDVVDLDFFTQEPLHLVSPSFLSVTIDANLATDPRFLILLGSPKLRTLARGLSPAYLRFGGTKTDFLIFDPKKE
Procedure: Cell surface heparanase activity was measured by a modification of the methodology used in the recombinant enzyme screen (Example 4). Parental MCF7 or MCF7-Hpa1#19 cells were cultured in non-tissue culture (non-adherent) 96-well plates, seeded at 10^6 cells per well. After overnight incubation at 37° C. anti-heparanase 10E9.1 or control IgG2 (Sigma Cat. 1504-1MG) antibodies were added to the cells, to a final concentration of 0.04-25 μg per ml, and incubated for 1 hr at room temperature. Thereafter Biotin Heparan Sulfate Europium Criptate (CisBio Cat. No. 61BHSKAA) was added to the cells (final concentration 20 ng per ml) and incubated at 37° C. for 1 hr. Degradation of the heparan sulfate substrate was determined following the addition of Streptavidin-XL665 (final concentration 250 ng per ml; CisBio Cat. No. 611SAXLA) to the cells and fluorescence measured using excitation at 330 nm and emission at 670 nm. In the absence of anti-heparanase antibody or in the presence of control IgG2, the minimum fluorescence at 670 nm is the result of degradation of heparan sulfate (see FIG. 10).

B1: 10E9.1: fully human anti-heparanase monoclonal antibody, G2κ; VH SEQ ID NO 2, VL SEQ ID NO 4; ATCC PTA-9489 (antibody, listed as Homo Sapiens, V domains shown)
VH: QVQLVQSGAEVKKPGASVKVSCKVSGYSLTELSIHWVRQAPGKGLEWMGGFDPEDGEIIFAQKFQGRVTLTEDISLDTAYMEVSSLRSEDTAVYYCATEGHDSGDYVGYYYYGLDVWGQGTTVTVSS
VL: DIQMTQSPSSLSASVGDRVTITCRASQDIRNFLAWYQQKPGKLPKLLIYAASTLQSGVPSRFSGSGSGTDFTLTISSLQPEDVASYYCQSHNSVPFTFGPGTKVDIR
notes: fully human anti-heparanase monoclonal antibody, G2κ; ATCC PTA-9489
Human heparanase
  Binding to heparanase Human: 0.63 OD units
Cynomolgus heparanase
  Binding to heparanase Cyno: 1.4 OD units
MCF7-Hpa1#19 cells; compared to control IgG2
  Accumulation of precursor (65 kDa) heparanase in the culture medium: accumulation of precursor (65 kDa) heparanase in the culture medium
MCF7-Hpa1#19 cells; then PMA 0.1-10 μM 2 hrs
  PMA-stimulated increase in intracellular heparanase: appeared to be attenuated
[1]
  Binding to cells by FACS: bind extensively
[2]
  Inhibition of cell surface heparanase activity: complete inhibition of cell surface heparanase activity
